Molecular target: wasl_bovin WASL (UniProt Q95107)
Sequence (Q95107 whole entry): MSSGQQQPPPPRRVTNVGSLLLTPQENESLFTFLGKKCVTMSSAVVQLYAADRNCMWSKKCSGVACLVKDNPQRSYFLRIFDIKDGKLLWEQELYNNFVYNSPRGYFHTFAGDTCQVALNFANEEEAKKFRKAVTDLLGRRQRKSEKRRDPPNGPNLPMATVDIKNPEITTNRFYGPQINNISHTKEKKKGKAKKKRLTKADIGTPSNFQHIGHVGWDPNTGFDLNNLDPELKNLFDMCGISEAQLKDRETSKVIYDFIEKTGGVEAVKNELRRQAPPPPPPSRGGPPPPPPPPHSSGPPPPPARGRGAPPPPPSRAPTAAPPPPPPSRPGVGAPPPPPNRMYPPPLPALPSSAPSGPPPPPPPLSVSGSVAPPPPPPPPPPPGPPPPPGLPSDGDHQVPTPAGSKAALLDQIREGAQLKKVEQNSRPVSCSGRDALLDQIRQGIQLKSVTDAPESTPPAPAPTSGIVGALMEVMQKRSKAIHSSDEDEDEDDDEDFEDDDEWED

Chain of Src substrate cortactin (Mus musculus), Q60598 Y466D;Y482D (Q60598 whole entry Y466D/Y482D): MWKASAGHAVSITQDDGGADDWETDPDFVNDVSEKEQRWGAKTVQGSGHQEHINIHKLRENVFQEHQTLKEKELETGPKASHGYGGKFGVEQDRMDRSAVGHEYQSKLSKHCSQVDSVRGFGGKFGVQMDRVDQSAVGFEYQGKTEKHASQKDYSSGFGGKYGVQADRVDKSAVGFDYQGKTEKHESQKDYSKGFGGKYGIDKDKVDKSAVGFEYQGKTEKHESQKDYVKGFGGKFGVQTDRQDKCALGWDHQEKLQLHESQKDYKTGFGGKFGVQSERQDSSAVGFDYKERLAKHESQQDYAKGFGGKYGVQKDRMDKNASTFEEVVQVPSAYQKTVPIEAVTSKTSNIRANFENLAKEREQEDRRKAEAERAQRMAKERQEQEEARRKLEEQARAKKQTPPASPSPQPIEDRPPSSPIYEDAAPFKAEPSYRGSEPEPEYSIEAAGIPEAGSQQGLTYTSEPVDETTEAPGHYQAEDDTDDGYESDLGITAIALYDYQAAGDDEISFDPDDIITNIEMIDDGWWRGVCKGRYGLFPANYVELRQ
Chain of Src substrate cortactin (Mus musculus), Q60598 W525K (Q60598 whole entry W525K): as the sequence (Q60598 whole entry Y466D/Y482D) above, with D466Y, D482Y, W525K counted along it
Chain of Src substrate cortactin (Mus musculus), Q60598 S405D;S418D (Q60598 whole entry S405D/S418D): as the sequence (Q60598 whole entry Y466D/Y482D) above, with S405D, S418D, D466Y, D482Y counted along it
Chain of Src substrate cortactin (Mus musculus), Q60598 S405D;P416D;Y466D;Y482D (Q60598 whole entry S405D/P416D/Y466D/Y482D): as the sequence (Q60598 whole entry Y466D/Y482D) above, with S405D, P416D counted along it

Q: For “Src substrate cortactin (Mus musculus), Q60598 Y466D;Y482D”, which “effect of a mutation on the interaction” value is on record?
A: Its value is “decreasing interaction”.

Q: How did the “effect of a mutation on the interaction” value turn out when “Src substrate cortactin (Mus musculus), Q60598 S405D;P416D;Y466D;Y482D” was run?
A: Its value is “decreasing interaction”.

Q: For “Src substrate cortactin (Mus musculus), Q60598 W525K”, which “effect of a mutation on the interaction” value is on record?
A: The value was “disrupting interaction”.

Q: “Src substrate cortactin (Mus musculus), Q60598 S405D;S418D” was tested. Which “effect of a mutation on the interaction” value did it give?
A: Its value is “increasing interaction”.

From IntAct's records for PubMed 15169891
